For test [1], the system named is HEK293 cells. Description: MEKK1 staining and TdT-mediated dUTP incorporation (DNA fragmentation) in transfected cells. The class given is cell-based, Human. The essentials: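 HEK293 cells stably expressing EBNA-1 were lipofectamine-transfected, then fixed and permeabilized 2 days later. DNA fragmentation labelled by TdT biotin-dUTP incorporation (1 h, 37 °C) and detected with FITC-streptavidin; MEKK1 stained with Cy3 secondary antibody. Imaged by fluorescence microscopy.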

In test [2] the test system is MEKK1. Nature of the test: SEK1 K→M phosphorylation by MEKK1 immunoprecipitates. The test is classed as biochemical, mouse. As to conditions: HEK293 lysates; 95-012 antibody. On the procedure:
MEKK1 was immunoprecipitated from cell lysates (200-500 μg) with the antibodies raised against specific sequences of MEKK1 or the 12CA5 antibody that recognizes the HA-tag sequence.

Test [3] has as its system MEKK1. Description: Immunoblot of cleavage fragments of transfected HA-tagged MEKK1 in HEK293 cells. As to conditions: co-expression with MEKK1; 6 independent experiments. The class given is cell-based, Human. In general terms: Immunoblotting shows a protein as a band on a membrane.
Test [4] deals with ERK2. Description: ERK2 immunoprecipitation kinase assay, transfected HEK293 cells. The test is classed as cell-based, Human. As to conditions: co-expression with MEKK1. On the procedure: Lysis buffer (70 mM β-glycerophosphate, 1 mM EGTA, 100 μM Na3VO4, 1 mM DTT, 2 mM MgCl2, 0.5% Triton-X100, 20 μg/ml aprotinin) was added to cells 15-24 hours after transfection. Cellular debris was removed by centrifugation at 8,000xg for 5 min. Protein concentration was normalized by Bradford assay using BSA as standard.
ERK2 was immunoprecipitated as described above for the JNK isoforms using the ERK2 (C-14) antibody (Santa Cruz Biotechnology). The beads were washed twice with 1 ml lysis buffer and twice with 1 ml lysis buffer without Triton-X100. […] The samples were washed thrice for 5 min each in 75 mM phosphoric acid and once for 2 min in acetone, air-dried, and their radioactivity determined in a β counter.

The subject of test [5] is c-Jun kinase (JNK). Description: c-Jun kinase assay, transfected HEK293 cells. The class given is cell-based, Human. The conditions noted are these: co-expression with MEKK1.

B1: p35: baculovirus protein with broad inhibitory activity to ICE/FLICE-like proteases (protein, UniProt P08160 1-299, looked up)
Early 35 kDa protein: MCVIFPVEIDVSQTIIRDCQVDKQTRELVYINKIMNTQLTKPVLMMFNISGPIRSVTRKNNNLRDRIKSKVDEQFDQLERDYSDQMDGFHDSIKYFKDEHYSVSCQNGSVLKSKFAKILKSHDYTDKKSIEAYEKYCLPKLVDERNDYYVAVCVLKPGFENGSNQVLSFEYNPIGNKVIVPFAHEINDTGLYEYDVVAYVDSVQFDGEQFEEFVQSLILPSSFKNSEKVLYYNEASKNKSMIYKALEFTTESSWGKSEKYNWKIFCNGFIYDKKSKVLYVKLHNVTSALNKNVILNTIK
In the case of B1, the “expressing cells showing DNA breaks” value in test [1] (co-expression with ΔMEKK1) is on record as 10%. For the same molecule, the “cells showing some DNA fragmentation” value in test [1] (cotransfected with MEKK1) is “about 5%”. The “SEK1 phosphorylation by COOH-terminal antibody immunoprecipitates” value in test [2] was “reached the same level of phosphorylation observed when the 12CA5 antibody was used”. Besides, in test [3], the “amount of fragment A” value was “unchanged” and the “diminution of the amount of fragment B” value is 90%. The “effect on activation of ERK2 by MEKK1” value in test [4] is “unaffected”. In addition, in test [5], the “effect on activation of the JNKs by MEKK1” value is given as “unaffected”.

For the origin of these results see patent US20020055130A1, “Method and product for regulating apoptosis” (National Jewish Center for Immunology and Respiratory …, priority 1997, published 2002).
